According to US20100189719A1 (published 2010):

B2: murine VEGF (mVEGF) (ligand, mouse, UniProt Q00731-2 27-190, looked up)
chain: APTTEGEQKSHEVIKFMDVYQRSYCRPIETLVDIFQEYPDEIEYIFKPSCVPLMRCAGCCNDEALECVPTSESNITMQIMRIKPHQSQHIGEMSFLQHSRCECRPKKDRTKPENHCEPCSERRKHLFVQDPQTCKCSCKNTDSRCKARQLELNERTCRCDKPRR
notes: also called mouse VEGF

Columns and labels:
murine VEGF (mVEGF) [1] = target: B2; assay: BIAcore or solution binding ELISA, Fab
[2] = target: T1, Flt-1 ECD fragment (Ig domain1-5) (Flt-1D1-5) (UniProt P17948 27-553, limits assumed); assay: phage ELISA with wild type hVEGF phage
T1 construct: domain: Flt-1 ECD fragment (Ig domain1-5); also called Flt-1 receptor
T1 sequence (P17948 27-553 limits assumed): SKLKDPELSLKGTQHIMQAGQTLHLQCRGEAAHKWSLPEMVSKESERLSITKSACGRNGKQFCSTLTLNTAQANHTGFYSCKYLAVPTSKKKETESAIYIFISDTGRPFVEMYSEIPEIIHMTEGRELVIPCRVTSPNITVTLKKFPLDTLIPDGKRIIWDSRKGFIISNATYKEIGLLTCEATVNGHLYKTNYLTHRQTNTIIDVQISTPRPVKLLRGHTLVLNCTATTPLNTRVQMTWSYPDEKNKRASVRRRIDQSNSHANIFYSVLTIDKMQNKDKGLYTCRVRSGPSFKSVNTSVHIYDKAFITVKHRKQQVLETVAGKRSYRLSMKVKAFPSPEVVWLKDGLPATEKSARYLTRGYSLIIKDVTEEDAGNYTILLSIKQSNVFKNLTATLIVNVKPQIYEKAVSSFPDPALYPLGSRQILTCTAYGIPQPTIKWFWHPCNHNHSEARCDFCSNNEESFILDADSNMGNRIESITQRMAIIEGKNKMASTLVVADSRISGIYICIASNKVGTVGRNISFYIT

[3] = target: T2, full extracellular domain (ECD) of KDR (UniProt P35968 20-764, limits assumed); assay: phage-blocking assay: receptor fragment at increasing concentration competes with phage clones for mVEGF-coated wells
T2 construct: extracellular domain; also called KDR ECD
T2 sequence (P35968 20-764 limits assumed): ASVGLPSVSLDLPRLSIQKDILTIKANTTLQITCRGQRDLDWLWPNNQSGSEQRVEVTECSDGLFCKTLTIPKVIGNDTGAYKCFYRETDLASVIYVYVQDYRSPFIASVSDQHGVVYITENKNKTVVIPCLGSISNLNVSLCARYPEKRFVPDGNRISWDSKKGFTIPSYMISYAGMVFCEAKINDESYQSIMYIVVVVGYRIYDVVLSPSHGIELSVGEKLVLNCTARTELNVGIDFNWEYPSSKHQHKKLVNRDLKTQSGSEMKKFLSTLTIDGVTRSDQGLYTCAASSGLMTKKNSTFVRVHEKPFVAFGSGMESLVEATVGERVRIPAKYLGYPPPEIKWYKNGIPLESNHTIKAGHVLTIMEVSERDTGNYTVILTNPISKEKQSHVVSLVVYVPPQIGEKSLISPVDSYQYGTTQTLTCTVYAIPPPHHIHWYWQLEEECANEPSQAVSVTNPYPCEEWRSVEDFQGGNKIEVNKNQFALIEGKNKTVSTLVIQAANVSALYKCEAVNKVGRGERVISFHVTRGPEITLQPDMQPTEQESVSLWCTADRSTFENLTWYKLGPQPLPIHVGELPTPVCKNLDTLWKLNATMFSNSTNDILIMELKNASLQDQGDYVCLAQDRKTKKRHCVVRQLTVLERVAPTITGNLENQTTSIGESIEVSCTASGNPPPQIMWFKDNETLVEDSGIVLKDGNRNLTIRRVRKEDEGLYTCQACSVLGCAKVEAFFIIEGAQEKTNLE

[4] = target: T3, human placenta growth factor (PlGF-2) (human, UniProt P49763-3 19-170, limits assumed); assay: direct ELISA on coated homolog (2 ug/ml) with increasing G6 Fab
T3 construct: also called human PlGF-2
T3 sequence (looked up): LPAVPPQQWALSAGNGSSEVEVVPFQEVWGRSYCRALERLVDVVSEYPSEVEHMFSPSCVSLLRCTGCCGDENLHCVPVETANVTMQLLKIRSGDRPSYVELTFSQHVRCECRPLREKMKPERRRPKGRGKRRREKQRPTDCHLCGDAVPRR

[5] = target: T4, mouse placenta growth factor (PlGF-2) (mouse, UniProt P49764 19-158, limits assumed); assay: as above
T4 construct: also called murine PlGF-2
T4 sequence (looked up): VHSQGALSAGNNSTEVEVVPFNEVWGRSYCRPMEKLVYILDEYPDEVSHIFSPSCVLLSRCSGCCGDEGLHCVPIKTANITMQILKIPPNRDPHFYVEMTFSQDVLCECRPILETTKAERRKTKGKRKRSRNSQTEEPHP

murine VEGF-D (mVEGF-D) = target: T5, murine VEGF-D (mVEGF-D) (mouse, UniProt P97946 98-206, limits assumed); assay: as above
T5 sequence (looked up): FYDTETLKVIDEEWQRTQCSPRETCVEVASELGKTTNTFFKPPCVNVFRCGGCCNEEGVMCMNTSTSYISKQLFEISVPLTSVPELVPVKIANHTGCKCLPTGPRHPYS

human VEGF-B = target: T6, human VEGF-B (human, UniProt P49765-2 22-188, limits assumed); assay: as above
T6 sequence (looked up): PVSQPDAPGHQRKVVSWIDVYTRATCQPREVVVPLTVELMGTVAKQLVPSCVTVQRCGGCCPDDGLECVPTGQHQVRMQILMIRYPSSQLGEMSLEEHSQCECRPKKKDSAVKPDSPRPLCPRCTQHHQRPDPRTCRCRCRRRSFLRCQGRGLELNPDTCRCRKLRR

murine VEGF (mVEGF) [6] = target: B2; assay: phage-blocking assay: receptor fragment at increasing concentration competes with phage clones for mVEGF-coated wells

Y0317 Fab
affinity (murine VEGF (mVEGF) [1]): 350 nM

B1: hVEGF displayed on phage (hVEGF1-109, wild type) (ligand, human, UniProt P15692 207-315, looked up)
chain: APMAEGGGQNHHEVVKFMDVYQRSYCHPIETLVDIFQEYPDEIEYIFKPSCVPLMRCGGCCNDEGLECVPTEESNITMQIMRIKPHQGQHIGEMSFLQHNKCECRPKKD
notes: Phage fusion partner not described; also called hVEGF displaying phage; hVEGF-phage
binding result [2]: binds

B2
binding result [3]: binds

B3: G6 Fab (Fab, V domains shown)
VH: EVQLVESGGGLVQPGGSLRLSCAASGFTISDYWIHWVRQAPGKGLEWVAGITPAGGYTYYADSVKGRFTISADTSKNTAYLQMNSLRAEDTAVYYCARFVFFLPYAMDYWGQGTLVTVSS
VL: DIQMTQSPSSLSASVGDRVTITCRASQDVSTAVAWYQQKPGKAPKLLIYSASFLYSGVPSRFSGSGSGTDFTLTISSLQPEDFATYYCQQSYTTPPTFGQGTKVEIKR
notes: Purified Fab from E. coli in most assays; also called Fab G6; FabG6
binding result [4]: no binding | binding result [5]: no binding | binding result (murine VEGF-D (mVEGF-D)): no binding | binding result (human VEGF-B): no binding

B4: second domain of Flt-1 (Flt-1D2) (receptor, UniProt P17948 129-229, looked up)
chain: SDTGRPFVEMYSEIPEIIHMTEGRELVIPCRVTSPNITVTLKKFPLDTLIPDGKRIIWDSRKGFIISNATYKEIGLLTCEATVNGHLYKTNYLTHRQTNTI
notes: domain: second domain of Flt-1 (Flt-1D2)
binding result (murine VEGF (mVEGF) [6]): binds
